Patent publication US20120270801A1 (Affibody, published 2012)

Target: T1, recombinant human HER3/Fc chimera (R&D Systems, #348-RB-050) (human, UniProt P21860 20-643)
T1 construct: Bought reagent; Biotinylated for flow cytometry, unlabelled for dot blot, ELISA and SPR; also called biotinylated HER3-Fc; not shown: human IgG Fc-region
Assay: SPR, 2.5 nM HER3-Fc alone injected over immobilised heregulin

B1: heregulin (HRG1-β1, EGF-like domain, R&D Systems) (ligand, human, UniProt Q02297-6 177-241, looked up)
chain: SHLVKCAEKEKTFCVNGGECFMVKDLSNPSRYLCKCPNEFTGDRCQNYVMASFYKHLGIEFMEAE
notes: domain: EGF-like domain; also called human heregulin; HRG1-β, 396-HB
Does B1 bind?
Result: binds
